# Data reported in patent US20150132307A1 (Hoffmann-La Roche, published 2015).
# T1: Human recombinant soluble TWEAK (Example 6) (human, UniProt O43508 99-249, limits assumed)
# T1 sequence: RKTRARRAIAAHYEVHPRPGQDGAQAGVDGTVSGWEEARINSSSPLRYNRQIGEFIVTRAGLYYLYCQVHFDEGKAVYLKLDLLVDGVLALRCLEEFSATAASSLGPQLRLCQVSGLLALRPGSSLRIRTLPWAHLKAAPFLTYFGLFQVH
# T2: Biotinylated human soluble TWEAK (amino acids 99-249 of SEQ ID NO: 68) (human, UniProt O43508 99-249, biotinylated)
# T2 construct: also called Human TWEAK
# T2 sequence: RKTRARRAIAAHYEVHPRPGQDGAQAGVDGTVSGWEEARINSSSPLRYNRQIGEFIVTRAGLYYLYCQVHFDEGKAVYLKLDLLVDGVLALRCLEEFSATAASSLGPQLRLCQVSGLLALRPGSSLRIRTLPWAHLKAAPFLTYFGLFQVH
# T3: Mouse soluble TWEAK (untagged, Example 5) (mouse, UniProt O54907 105-249, limits assumed)
# T3 construct: also called Murine TWEAK
# T3 sequence: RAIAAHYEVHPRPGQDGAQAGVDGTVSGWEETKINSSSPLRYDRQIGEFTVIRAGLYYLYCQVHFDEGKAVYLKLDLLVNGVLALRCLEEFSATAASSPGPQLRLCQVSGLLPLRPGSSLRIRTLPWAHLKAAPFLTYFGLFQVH
# T4: Biotinylated TWEAK (Example 7) (Homo sapiens (Human), UniProt O43508 99-249, Biotinylated (sites not given), captured on a streptavidin chip. The active form is a soluble homotrimer; one protomer is given.)
# T4 sequence: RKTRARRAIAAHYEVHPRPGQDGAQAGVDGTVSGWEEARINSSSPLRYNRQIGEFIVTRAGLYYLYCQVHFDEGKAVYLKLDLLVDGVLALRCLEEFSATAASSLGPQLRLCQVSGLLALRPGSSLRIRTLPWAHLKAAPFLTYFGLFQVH
# T5: human Flag-tagged soluble TWEAK (amino acids 106-249) (human, UniProt O43508 106-249)
# T5 construct: The sentence gives amino acids 106-249 without naming the entry; also called Human TWEAK; not shown: Flag tag
# T5 sequence: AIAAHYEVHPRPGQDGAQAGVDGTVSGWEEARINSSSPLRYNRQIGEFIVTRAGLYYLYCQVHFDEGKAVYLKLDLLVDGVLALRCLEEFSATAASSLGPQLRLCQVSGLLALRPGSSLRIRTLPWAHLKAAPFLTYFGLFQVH
# Legend:
# [1] = molecular target: T1, Human recombinant soluble TWEAK …; assay: cell-based or functional assay
# [2] = molecular target: T2, Biotinylated human soluble TWEAK (amino …); assay: SPR (Biacore 2000), biotinylated soluble TWEAK on streptavidin chip, antibody 100 nM as analyte, 25 C
# Procedure: A Biacore 2000 instrument was used with a Biacore streptavidin coated sensor mounted into the system. The system buffer HBS-ET (10 mM HEPES pH 7.4, 150 mM NaCl, 1 mM EDTA, 0.05% Tween® 20) was used at a flow rate of 100 μl/min. The sample buffer was the system buffer. Biotinylated human soluble TWEAK (amino acids 99-249 of SEQ ID NO: 68) and biotinylated murine soluble TWEAK (amino acids 81-225 of SEQ ID NO: 69) was immobilized on different flow cells on the SA sensor at 150 RU each. The flow cell FC1 was used as a blank reference cell. Each antibody was injected into the system as an analyte at 100 nM at 100 μl/min for 2 min association time. The dissociation of the immunecomplexes were monitored for 5 min. The sensor surface was washed with HBS-ET for 10 seconds and regenerated using 2×2 minutes injections with 10 mM glycine pH 2.25. This procedure was done at 25° C. The kinetically rate limiting step of the complex dissociation phase in the interval [240 s-300 s] was taken to calculate the dissociation rate kd [1/s] (Biacore Evaluation Software 4.0). According to the equation t1/2 diss=ln(2)/(60×kd), the half-life of the immunocomplexes in minutes was calculated.
# [3] = molecular target: T3, Mouse soluble TWEAK (untagged, Example …); assay: receptor interaction ELISA: mouse soluble TWEAK 4 ng/ml preincubated with antibody, then on coated mouse Fn14:Fc (competitor m22)
# Procedure: Briefly, Maxisorp plates were coated with mouse Fn14:Fc (extracellular domain of mouse Fn14 (amino acids 1-75 of SEQ ID NO: 98) fused to Fc portion of human IgG1) as described above for human Fn14:Fc, followed by blocking and washing. […] After 1 h of incubation at room temperature and four washes, biotinylated anti-mouse TWEAK antibody at 125 ng/ml in blocking buffer was added for 1 h at room temperature, followed by another four wash steps. The TWEAK antibody was detected by incubation with streptavidin-HRP, diluted 1:5000 in blocking buffer, for 30 minutes at room temperature. Signal was developed and absorbance measured as described above.
# [4] = molecular target: T4, Biotinylated TWEAK (Example 7); assay: Biacore crossblocking on immobilised biotinylated TWEAK; antibody 2 injected after saturating antibody 1 = TW-304chi (competitor m5), 100 nM each
# Procedure: (§1) Because of the individual biochemical properties of the TWEAK protein another method had to be developed using TWEAK as ligand. Biotinylated TWEAK was immobilized on the streptavidin-coated chip surface and epitope coverage of consecutively injected antibodies (antibody 1) was measured. The aim was to detect the relative binding levels of a secondary antibody (antibody 2) in the presence of an already bound primary antibody. From these relative binding levels a quotient was calculated (Ab2/Ab1, molar ratio given in %, table 3).
# (§2) 5 nM of biotinylated TWEAK was immobilized at 20 μl/min for 1 min on a streptavidin coated sensor flow cell. Primary and secondary mAbs were consecutively injected at 10 μl/min for 4 min into the system at 100 nM each until saturation of the respective TWEAK epitopes was achieved. As a reference an SA coated flow cell was used.
# [5] = molecular target: T5, human Flag-tagged soluble TWEAK (amino …); assay: receptor interaction ELISA: Flag-TWEAK 2.5 ng/ml preincubated with antibody, then on coated human Fn14:Fc (competitor m21)
# Procedure: 96-well Maxisorp® plates (Nunc) were coated with 100 μl 1 μg/ml human Fn14:Fc (extracellular domain of human Fn14 (amino acids 1-75 of SEQ ID NO: 98) fused to Fc portion of human IgG1) in PBS per well for 1.5 h at room temperature and blocked with a solution of 5% FBS in PBS for 30 minutes at room temperature under shaking. […] After washing the Fn14-coated plate once with wash buffer (0.1% Tween® 20 in PBS), 100 μl of the TWEAK-antibody solution were transferred to each well and the plate was incubated for 1 h at room temperature, followed by four washes with wash buffer. Wells were filled with 100 μl of anti-FLAG-HRP detection antibody, diluted 1:5000 in blocking buffer, and incubated for 1 h at room temperature. After four more wash steps, the signal was developed by addition of 100 μl 3,3,5,5-Tetramethylbenzidine (TMB) solution for approximately ten minutes. The reaction was stopped by adding 100 μl of 1 N HCl, and absorbance measured at 450 nm (reference wavelength 620 nm).
# [6] = molecular target: T4, Biotinylated TWEAK (Example 7); assay: Biacore crossblocking on immobilised biotinylated TWEAK; antibody 2 injected after saturating antibody 1 = TW-305chi (competitor m6), 100 nM each
# Procedure: as §1, §2
# [7] = molecular target: T4, Biotinylated TWEAK (Example 7); assay: Biacore crossblocking on immobilised biotinylated TWEAK; antibody 2 injected after saturating antibody 1 = TW-301chi (competitor m4), 100 nM each
# Procedure: as §1, §2
binder,measurement,setting,value
"<TWEAK> 301chi (antibody, human IgG1, kappa, V domains shown) VH: QSLEESGGGLVKPGASLTLTCTASGFTFNANYWICWVRQAPGKGLEWIACIYGGGNSGAYYASWATGRFTISRTSSTTVTLQMTSLTAADTATYFCARGPISRDLWGPGTLVTVSL VL: DVVMTQTPASVSEPVGGTVTIKCQASQSIYSSLAWYQQKPGQPPKLLIYDAFDLASGVSSRFTGSGSGTQFTLTISDLECADAATYYCQSTDYGNSWDGNPFGGGTEVVVTR",Inhibition of IL-8 Secretion IC50 [ng/ml] (A375 cells),[1],121 ng/mL
same,t/2 diss [min] 25° C.,[2],110 min
same,IC50,[3],6.4 ng/mL
same,"MR % (Ab2/Ab1, molar ratio)",[4],0%
same,IC50,[5],2.8 ng/mL
same,"MR % (Ab2/Ab1, molar ratio)",[6],0%
same,"MR % (Ab2/Ab1, molar ratio)",[7],0%
